Where two headings read alike, the source gives them in different places.
Columns and labels:
[1] = mouse; expected from published studies and own work; cited from earlier work
[2] = Expected pharmacokinetics of soluble and/or released interferon α in the mouse; assay type: in vivo; details: for a 20 g mouse
Method: Animal Study. […] Mice used for this study were Balb/c transgenic for the human Interferon α2b gene (Braun et al. 1997, Palleroni et al. 1997). Three mice were used for each formulation. As a, control, one set of mice was injected with 50 μg of soluble human IFN-α001. […] Thus, for a 20 g mouse, the volume of distribution should be ˜8 ml. At 24 hours after administration, given a half-life of 1 hr, we would predict that the serum concentration remaining from a 50 μg dose would be ˜1 pg/ml. In practice, all of the sera of this group of mice were below the detection limit of the ELISA of 40 pg/ml. To test our formulation strategy, we produced 5 different interferon formulations. Human IFN-α2b, human IFN-α001, human IFN-α012, and murine IFN-α formulations were allowed to mature for 18 hr. A fifth formulation contained human IFN-α001 and matured for 3 hours prior to centrifugation. The human IFN-α formulations were produced at 0.4 mg/ml protein with 25 mM NaOAc pH 5.4, 6 mM Tris pH 8.0, 50 mM NaCl, 1.25% glycerol, with particle formation intitiated by addition of N-propanol to 16%. […] Serum was collected at 24 hours post injection, mice in all groups recieving a human interferon had immunoreactive interferon in their serum as determined by ELISA (PBL Multispecies ELISA # 41105). […] No interferon was detected at the 96 hours or 168 hours time points.

What does the source list for interferon α?
volume of distribution [1]: about 0.4 ml/g; volume of distribution [2]: ~8 mL
